Test [1] deals with TgSNF2L (aa 1 to 1556) (Toxoplasma gondii). Kind of test: mass photometry.
The target is the same in test [2]. The test can be described thus: SEC-MALS. (SEC sorts molecules by how far they enter the pores of the column.)
Test [3] deals with TgSNF2L Hydra domain (886-1057) (Toxoplasma gondii). Kind of test: mass photometry.
Test [4] has the same target. The test can be described thus: SEC-MALS.
For test [5] the target is unchanged. The test can be described thus: native gel or EMSA. Background: In EMSA bound probe runs differently from free probe, usually more slowly.
Test [6] concerns the target TgSNF2LΔHydra (aa 1 to 1556 with an internal deletion between aa 880 and 1040) (Toxoplasma gondii). Kind of test: mass photometry.
Test [7] shares this target. The test can be described thus: SEC-MALS.

“And” between values parts separate entries of the source, which are not always exact repeats. Identical values can stand only once.

In test [1], TgSNF2L (aa 1 to 1556) (enzyme) had a percent of particles dimeric of 11%; a percent of particles monomeric of 22%; a percent of particles tetrameric and bigger of 59%. Also, in test [2], the stoichiometry N – broadly, the number of molecules, sites or subunits per partner or assembly – stood at 4.
Consider “TgSNF2L Hydra domain (886-1057) (domain or fragment)”, for which the stoichiometry N in test [3] was 10; in test [4], 10; in test [5], 10 and 20.
As to “TgSNF2LΔHydra (aa 1 to 1556 with an internal deletion between aa 880 and 1040) (enzyme)”, in test [6], the percent of particles monomeric and dimeric stood at 71%; the percent of particles tetrameric and higher came out at 19%. Moreover, in test [7], the stoichiometry N is 2.

Source of the values: doi:10.1101/2025.09.03.673926.
